The target in test [1] is CD44 (HCELL), native glycoprotein from human HSPCs (KG1a, CD34^pos fraction) (human) (UniProt P16070). The test can be described thus: SPR, from the binding isotherm; CD44 captured from KG1a lysate. (In general: SPR reads the build-up and loss of mass on a sensor chip optically.)
The target of test [2] is T1, CD34, native glycoprotein from human HSPCs (KG1a, CD34^pos-BM, CD34^pos-UCB, CD34^pos-AML) (human, UniProt P28906 32-385, native glycosylation (about 120-130 kDa form); sialylated O-glycans and tyrosine sulfation are shown to matter for selectin binding).
T1 construct: mature; also called E-selL CD34
T1 sequence (looked up): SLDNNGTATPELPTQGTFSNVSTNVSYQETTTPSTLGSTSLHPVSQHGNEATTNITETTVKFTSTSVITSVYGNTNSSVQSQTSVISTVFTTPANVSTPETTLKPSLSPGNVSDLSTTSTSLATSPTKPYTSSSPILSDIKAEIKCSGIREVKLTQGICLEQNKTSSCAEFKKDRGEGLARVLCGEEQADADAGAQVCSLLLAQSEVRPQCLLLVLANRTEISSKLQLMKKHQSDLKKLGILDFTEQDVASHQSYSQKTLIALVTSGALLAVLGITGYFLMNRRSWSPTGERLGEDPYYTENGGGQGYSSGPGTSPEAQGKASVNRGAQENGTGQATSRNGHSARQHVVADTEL
The test can be described thus: SPR; CD34 captured from CD34^pos-BM lysate on 563 mAb; apparent rate constant, estimate.

Test [3] has as its target T1, CD34, native glycoprotein from human …. The test can be described thus: SPR; CD34 captured from KG1a lysate on 563-mAb, E-Ig injected, 150 mM NaCl; apparent rate constant; 1st experiment.
Test [4] has as its target CD44 (HCELL), native glycoprotein from human HSPCs (KG1a, CD34^pos fraction) (human) (UniProt P16070). As to the kind of experiment: SPR; CD44 captured from KG1a lysate on Hermes-3-mAb, E-Ig injected (3.9-2000 nM), 150 mM NaCl; steady-state model; 2nd experiment.
For test [5] the target is unchanged. The test can be described thus: SPR; CD44 captured from KG1a lysate on Hermes-3-mAb, E-Ig injected (3.9-2000 nM), 150 mM NaCl; steady-state model; 3rd experiment.
For test [6], the target named is T2, PSGL-1, native glycoprotein from human HSPCs (KG1a, CD34^pos-BM) (human, UniProt Q14242 42-412, native glycosylation and tyrosine sulfation).
T2 construct: mature; also called P-selectin glycoprotein ligand-1
T2 sequence (looked up): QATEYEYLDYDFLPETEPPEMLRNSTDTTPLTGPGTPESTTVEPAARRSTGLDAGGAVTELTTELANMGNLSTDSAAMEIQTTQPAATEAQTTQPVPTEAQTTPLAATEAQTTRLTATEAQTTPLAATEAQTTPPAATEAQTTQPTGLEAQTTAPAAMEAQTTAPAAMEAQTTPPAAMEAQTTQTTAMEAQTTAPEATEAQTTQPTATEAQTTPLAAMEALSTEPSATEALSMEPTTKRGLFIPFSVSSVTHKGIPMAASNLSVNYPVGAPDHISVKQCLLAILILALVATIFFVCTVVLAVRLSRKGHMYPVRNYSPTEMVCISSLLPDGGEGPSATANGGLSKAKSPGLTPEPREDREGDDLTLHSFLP
The test can be described thus: SPR; PSGL-1 captured from KG1a lysate on KPL-1-mAb, E-Ig injected, 150 mM NaCl; apparent rate constant; 1st experiment.

Test [7] concerns the target T1, CD34, native glycoprotein from human …. As to the kind of experiment: SPR; CD34 captured from KG1a lysate on 563-mAb, E-Ig injected (3.9-2000 nM), 150 mM NaCl; steady-state model; mean ± SEM.
For test [8], the target named is T3, CD43, native glycoprotein from KG1a cells (human, UniProt P16150 20-400, native glycosylation).
T3 construct: mature
T3 sequence (looked up): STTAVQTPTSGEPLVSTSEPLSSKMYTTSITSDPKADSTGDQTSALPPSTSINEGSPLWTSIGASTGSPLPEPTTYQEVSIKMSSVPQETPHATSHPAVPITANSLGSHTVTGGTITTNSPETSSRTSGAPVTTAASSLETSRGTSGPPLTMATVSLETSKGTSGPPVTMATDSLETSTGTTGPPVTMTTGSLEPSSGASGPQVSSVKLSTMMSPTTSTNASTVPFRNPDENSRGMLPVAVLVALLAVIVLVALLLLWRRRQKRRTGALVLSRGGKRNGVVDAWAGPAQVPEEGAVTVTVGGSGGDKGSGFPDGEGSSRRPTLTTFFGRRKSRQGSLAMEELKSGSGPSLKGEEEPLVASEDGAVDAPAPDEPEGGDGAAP
As to the kind of experiment: SPR; CD43 captured from KG1a lysate on polyclonal CD43 Ab, E-Ig injected, 150 mM NaCl; apparent rate constant; mean ± SEM.

For test [9], the target named is T1, CD34, native glycoprotein from human …. The test can be described thus: SPR; CD34 captured from KG1a lysate on 563-mAb, E-Ig injected (3.9-2000 nM), 150 mM NaCl; steady-state model; 1st experiment.
Test [10] shares this target. As to the kind of experiment: SPR; CD34 captured from KG1a lysate on 563-mAb, E-Ig injected (3.9-2000 nM), 150 mM NaCl; steady-state model; 3rd experiment.

CD44 (HCELL), native glycoprotein from human HSPCs (KG1a, CD34^pos fraction) (human), sequence (P16070 21-742): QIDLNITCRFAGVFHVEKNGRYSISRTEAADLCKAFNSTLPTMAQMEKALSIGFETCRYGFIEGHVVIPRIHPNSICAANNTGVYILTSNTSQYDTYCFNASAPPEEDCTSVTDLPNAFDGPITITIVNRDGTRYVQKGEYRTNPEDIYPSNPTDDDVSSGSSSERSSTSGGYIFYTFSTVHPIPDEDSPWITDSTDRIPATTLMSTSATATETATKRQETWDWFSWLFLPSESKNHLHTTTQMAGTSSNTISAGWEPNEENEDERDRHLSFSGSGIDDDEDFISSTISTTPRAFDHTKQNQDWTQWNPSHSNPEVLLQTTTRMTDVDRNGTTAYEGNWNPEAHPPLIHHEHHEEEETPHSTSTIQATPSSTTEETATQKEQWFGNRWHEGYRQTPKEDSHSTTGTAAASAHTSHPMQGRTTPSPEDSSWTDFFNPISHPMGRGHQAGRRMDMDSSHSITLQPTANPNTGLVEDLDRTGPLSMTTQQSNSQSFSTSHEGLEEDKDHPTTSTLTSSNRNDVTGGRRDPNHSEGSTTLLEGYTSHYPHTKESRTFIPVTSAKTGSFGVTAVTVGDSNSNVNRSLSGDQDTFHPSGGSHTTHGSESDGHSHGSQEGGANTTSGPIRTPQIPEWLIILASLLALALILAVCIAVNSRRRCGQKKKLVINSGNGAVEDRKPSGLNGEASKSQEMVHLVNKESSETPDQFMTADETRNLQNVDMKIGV

B1: recombinant E-selectin human immunoglobulin chimeric protein (Fc fusion)
chain: WSYNTSTEAMTYDEASAYCQQRYTHLVAIQNKEEIEYLNSILSYSPSYYWIGIRKVNNVWVWVGTQKPLTEEAKNWAPGEPNNRQKDEDCVEIYIKREKDVGMWNDERCSKKKLALCYTAACTNTSCSGHGECVETINNYTCKCDPGFSGLKCEQIVNCTALESPEHGSLVCSHPLGNFSYNSSCSISCDRGYLPSSMETMQCMSSGEWSAPIPACNVVECDAVTNPANGFVECFQNPGSFPWNTTCTFDCEEGFELMGAQSLQCTSSGNWDNEKPTCKAVTCRAVRQPQNGSVRCSHSPAGEFTFKSSCNFTCEEGFMLQGPAQVECTTQGQWTQQIPVCEAFQCTALSNPERGYMNCLPSASGSFRYGSSCEFSCEQGFVLKGSKRLQCGPTGEWDNEKPTCEAVRCDAVHQPPKGLVRCAHSPIGEFTYKSSCAFSCEEGFELHGSTQLECTSQGQWTEEVPSCQVVKCSSLAVPGKINMSCSGEPVFGTVCKFACPEGWTLNGSAARTCGATGHWSGLLPTCEAPTESNIP
On to B1, for which the % E-Ig binding assuming 1:1 stoichiometry in test [1] amounted to 23%. For the same molecule, the kon in test [2] was about 728 M⁻¹ s⁻¹; in test [3], 2030 M⁻¹ s⁻¹; in test [6], 438 M⁻¹ s⁻¹. For the same molecule, the koff worked out at 0.00029 s⁻¹ in test [3], 0.00015 s⁻¹ in [6] and 0.00045 s⁻¹ in test [8]. The Kd in test [4] amounted to 0.252 µM; in [5], 0.214 µM; in [7], 0.237 µM; in test [9], 0.145 µM; in test [10] it was 0.297 µM.

A word on the kon: it is the second-order rate constant of association. What is called koff is a measure of how fast the partners let go of each other. As a reminder, the Kd is the equilibrium constant for the complex coming apart. A high value points to weaker binding.

The record behind these values is patent publication US20200199533A1 (KING ABDULLAH UNIVERSITY OF SCIENCE AND TECHNOLOGY, published 2020).
